Experimental data reported in publication PMC8423358.

Biological target: DPP9, short isoform (DPP9S), co-expressed with CARD8 for cryo-EM, Q86TI2
Test: cryo-EM structure
Details: remark: other sources report otherwise

stoichiometry N: 2
B1: DPP9, short isoform (DPP9S), co-expressed with CARD8 for cryo-EM, Q86TI2-1 1-863 (enzyme)
chain: MATTGTPTADRGDAAATDDPAARFQVQKHSWDGLRSIIHGSRKYSGLIVNKAPHDFQFVQKTDESGPHSHRLYYLGMPYGSRENSLLYSEIPKKVRKEALLLLSWKQMLDHFQATPHHGVYSREEELLRERKRLGVFGITSYDFHSESGLFLFQASNSLFHCRDGGKNGFMVSPMKPLEIKTQCSGPRMDPKICPADPAFFSFINNSDLWVANIETGEERRLTFCHQGLSNVLDDPKSAGVATFVIQEEFDRFTGYWWCPTASWEGSEGLKTLRILYEEVDESEVEVIHVPSPALEERKTDSYRYPRTGSKNPKIALKLAEFQTDSQGKIVSTQEKELVQPFSSLFPKVEYIARAGWTRDGKYAWAMFLDRPQQWLQLVLLPPALFIPSTENEEQRLASARAVPRNVQPYVVYEEVTNVWINVHDIFYPFPQSEGEDELCFLRANECKTGFCHLYKVTAVLKSQGYDWSEPFSPGEDEFKCPIKEEIALTSGEWEVLARHGSKIWVNEETKLVYFQGTKDTPLEHHLYVVSYEAAGEIVRLTTPGFSHSCSMSQNFDMFVSHYSSVSTPPCVHVYKLSGPDDDPLHKQPRFWASMMEAASCPPDYVPPEIFHFHTRSDVRLYGMIYKPHALQPGKKHPTVLFVYGGPQVQLVNNSFKGIKYLRLNTLASLGYAVVVIDGRGSCQRGLRFEGALKNQMGQVEIEDQVEGLQFVAEKYGFIDLSRVAIHGWSYGGFLSLMGLIHKPQVFKVAIAGAPVTVWMAYDTGYTERYMDVPENNQHGYEAGSVALHVEKLPNEPNRLLILHGFLDENVHFFHTNFLVSQLIRAGKPYQLQIYPNERHSIRCPESGEHYEVTLLHFLQEYL
